Measurements as given in patent US10584243B2, “Antithrombotic compounds, methods and uses thereof” (The University of British Columbia, priority 2014, dated 2020).

Assays:
[1] = system: platelets in human platelet-rich plasma; assay: Platelet activation by flow cytometry (CD62P); format: cell-based; conditions: highest dose
Method: Blood from healthy consented donors was either collected into 3.8% sodium citrate tube with a blood/anticoagulant ratio of 9:1 or serum tube at Centre for Blood Research, University of British Columbia. The protocol was approved by the University of British Columbia clinical ethical committee and written consent was obtained from each individual donor. Platelet-rich plasma (PRP) was prepared by centrifuging citrated whole blood samples at 150×g for 10 min in an Allegra X-22R™ Centrifuge (Beckman Coulter™, Canada). Serum was prepared by centrifuging the blood collected in serum tube at 1200×g for 30 min one hour after blood collection.
The level of platelet activation after exposure to polyP inhibitors was quantified by flow cytometry. Ninety microliters of platelet rich plasma (PRP) was incubated at 37° C. with 10 μL of either 10 mg/mL or 20 mg/mL of UHRA, protamine or PEI stock solution (final polymer concentration 1 mg/mL and 2 mg/mL respectively) in PBS. […] The level of platelet activation was analyzed in a BD FACSCanto II flow cytometer (Becton Dickinson™) by gating platelets specific events based on their forward scattering profile (size of individual platelet). Activation of platelets was expressed as the percentage of platelet activation marker CD62-PE fluorescence detected in the 10,000 total events counted. […]

[2] = mice; intravenous injection; for UHRAs maximum injected dose, maximum tolerated dose not reached; cited from earlier work
[3] = target: T1, human fibrinogen (Homo sapiens, UniProt P02671+P02675+P02679); assay: Fibrin clot turbidity and scanning electron microscopy; conditions: fibrin polymerization assay
T1 sequence (P02671 20-644 isoform P02671-2 limits assumed): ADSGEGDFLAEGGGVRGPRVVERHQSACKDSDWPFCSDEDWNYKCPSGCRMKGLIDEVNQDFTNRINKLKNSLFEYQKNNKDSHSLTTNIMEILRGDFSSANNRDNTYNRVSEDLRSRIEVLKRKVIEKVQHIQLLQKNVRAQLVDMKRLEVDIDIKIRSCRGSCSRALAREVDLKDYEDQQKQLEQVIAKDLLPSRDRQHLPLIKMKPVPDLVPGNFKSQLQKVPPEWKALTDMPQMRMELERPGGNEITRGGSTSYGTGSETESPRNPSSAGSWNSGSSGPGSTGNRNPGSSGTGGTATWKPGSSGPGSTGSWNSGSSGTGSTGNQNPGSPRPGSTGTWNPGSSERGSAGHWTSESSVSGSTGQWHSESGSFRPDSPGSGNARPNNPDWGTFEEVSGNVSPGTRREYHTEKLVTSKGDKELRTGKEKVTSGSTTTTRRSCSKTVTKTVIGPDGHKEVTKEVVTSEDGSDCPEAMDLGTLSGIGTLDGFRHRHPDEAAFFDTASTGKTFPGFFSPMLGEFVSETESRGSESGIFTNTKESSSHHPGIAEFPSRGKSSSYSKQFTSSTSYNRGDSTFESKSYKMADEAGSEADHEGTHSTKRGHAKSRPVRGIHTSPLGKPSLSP
T1 sequence (P02675 45-491 limits assumed): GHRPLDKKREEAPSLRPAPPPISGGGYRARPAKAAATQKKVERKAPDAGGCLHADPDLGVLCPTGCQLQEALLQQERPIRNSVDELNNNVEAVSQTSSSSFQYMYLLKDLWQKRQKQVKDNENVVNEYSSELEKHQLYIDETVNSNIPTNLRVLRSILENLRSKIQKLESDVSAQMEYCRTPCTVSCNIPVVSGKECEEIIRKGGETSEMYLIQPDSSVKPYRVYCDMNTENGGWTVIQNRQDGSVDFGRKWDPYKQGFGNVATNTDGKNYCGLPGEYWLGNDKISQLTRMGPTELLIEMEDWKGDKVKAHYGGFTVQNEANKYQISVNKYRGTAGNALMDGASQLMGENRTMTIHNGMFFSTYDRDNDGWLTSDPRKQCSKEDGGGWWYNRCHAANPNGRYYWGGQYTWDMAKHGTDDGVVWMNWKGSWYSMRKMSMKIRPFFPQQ
T1 sequence (P02679 27-437 isoform P02679-2 limits assumed): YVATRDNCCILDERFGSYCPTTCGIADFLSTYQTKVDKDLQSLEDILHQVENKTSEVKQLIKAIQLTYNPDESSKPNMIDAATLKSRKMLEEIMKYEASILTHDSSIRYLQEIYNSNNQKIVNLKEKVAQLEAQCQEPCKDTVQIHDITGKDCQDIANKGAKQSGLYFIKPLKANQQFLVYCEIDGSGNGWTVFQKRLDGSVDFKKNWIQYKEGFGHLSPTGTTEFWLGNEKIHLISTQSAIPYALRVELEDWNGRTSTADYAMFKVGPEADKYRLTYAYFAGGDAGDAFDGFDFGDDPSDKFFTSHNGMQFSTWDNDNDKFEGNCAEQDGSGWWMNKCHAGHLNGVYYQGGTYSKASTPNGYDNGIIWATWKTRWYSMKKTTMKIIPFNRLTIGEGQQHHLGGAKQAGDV
Method: The morphology of clots formed in presence of UHRA and protamine was determined by scanning electron microscopy (SEM) analysis. All samples for SEM were randomly coded and blinded to the individual performing imaging and analysis to avoid bias. Fibrin clots were formed in sterile round-bottomed 5 mL polypropylene tubes (BD Falcon) by mixing purified human fibrinogen (200 μL, 3 mg/mL) in 20 mM HEPES (pH 7.4 and 150 mM NaCl) with 2.5 NIHU/mL thrombin and 3 mM CaCl2 and UHRA or protamine (in HEPES buffer) (0-500 μg/mL). All concentrations are final. Control clot was prepared in the absence of UHRA or protamine. After incubating the solution for 1 hour at 37° C., clots were immediately fixed using karnovsky fixative (2.5% glutaraldehyde and 4% formaldehyde) and repeatedly washed with 0.1 M sodium cacodylate buffer (pH=7.4) followed by post-fixation with 1% v/v osmium tetroxide. The samples were washed three times with distilled water and then dehydrated with gradient ethanol series (20-95% v/v). […] Fiber diameters of all clots were measured with image analysis software package ImageJ™ (National Institutes of Health, USA). Fiber diameter (n=30) from 8 separate areas of each clot was measured and used for calculating the average fiber size formed.

Substance: protamine sulfate
- platelet activation (CD62P expression) [1]: about 30%
- dose tolerated (up to) [2]: up to 20 mg/kg
- final turbidity (A405) of fibrin clots [3]: elevated final turbidity
